Results reported in paper PMC2966067.

Target: GST-Pin1 (UniProt Q13526)
Assay: pull-down

| Substance | percent of wild-type binding (densitometry) [%] | percent reduction of binding against wild type (densitometry) [%] |
| --- | --- | --- |
| FLAG-MEF2C S98A/S110A/S240A/S388A (natural protein) | 10 |  |
| FLAG-MEF2C S98/110A (natural protein) |  | 70 |
